Patent US20090087428A1 (Genentech, published 2009)
Where a chain is given by its changes, count along the chain named. Values joined by “and” are separate entries in the source; they are usually repeats but may differ in a detail not shown here. Equal entries are not always repeated.

T1: huFcεRI-ECD-Fc (IgE receptor fusion) (human, UniProt P12319 26-205)
T1 construct: extracellular domain; not shown: Fc part
T1 sequence (looked up): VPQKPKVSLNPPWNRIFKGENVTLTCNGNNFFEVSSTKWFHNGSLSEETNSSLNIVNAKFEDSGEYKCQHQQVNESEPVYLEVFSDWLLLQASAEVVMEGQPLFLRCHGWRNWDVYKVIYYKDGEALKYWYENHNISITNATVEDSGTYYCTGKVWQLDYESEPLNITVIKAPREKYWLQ

T2: native human FcγRIIA (CD32A) on K562 erythroleukemia cells (human, UniProt P12318 34-317)
T2 construct: also called huFcγRIIA (CD32A); native FcγRIIA
T2 sequence: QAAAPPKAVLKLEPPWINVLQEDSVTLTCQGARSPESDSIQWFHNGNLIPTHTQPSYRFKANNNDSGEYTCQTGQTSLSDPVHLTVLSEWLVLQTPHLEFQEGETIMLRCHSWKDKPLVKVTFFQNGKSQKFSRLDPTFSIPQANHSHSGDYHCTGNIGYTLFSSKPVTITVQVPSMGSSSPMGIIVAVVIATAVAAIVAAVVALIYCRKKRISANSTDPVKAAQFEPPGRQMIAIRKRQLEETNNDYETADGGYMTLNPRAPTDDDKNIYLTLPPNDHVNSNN

B1: huFcεRIα extracellular domain (huFcεRIα ECD) (receptor, human, UniProt P12319 26-205, looked up)
chain: T1 sequence (looked up)
notes: extracellular domain; also called huFcεRI ECD
B2: 22E7 MAb (anti-human FcεRI monoclonal antibody) (antibody)
chain 1: EVKLVESGGGLVKPGGSLKLSCAASGFTFSSYGMSWVRQTPEKRLEWVATISGGNNYTFYPDNLKGRFTISRDNAKNILYLQISSLRSVDTALYYCASLWYRASFAYWGQGTLVTVSS
chain 2: DIMMTQSPSSMYASLGERVTITCKASQDINSYLSWFQQKPGKSPKTLISRANRLVDGVPSRFSGSGSGQDYSLTISSLEYEDMGIYYCLQYDDFPFTFGGGTKVEIK
B3: huFcγRIIB extracellular domain with C-terminal His6 tag (huFcγRIIB ECD) (receptor)
chain: TPAAPPKAVLKLEPQWINVLQEDSVTLTCRGTHSPESDSIQWFHNGNLIPTHTQPSYRFKANNNDSGEYTCQTGQTSLSDPVHLTVLSEWLVLQTPHLEFQEGETIVLRCHSWKDKPLVKVTFFQNGKSKKFSRSDPNFSIPQANHSHSGDYHCTGNIGYTLYSSKPVTITVQAPHHHHHH
notes: Whole entry named; only the extracellular domain is in the construct; Baculovirus expression
B4: 5A6/22E7 knob in holes, wild type hinge, bispecific antibody (bispecific antibody)
chain 1: EVKLEESGGGLVQPGGSMKLSCVASGFTFSDAWMDWVRQSPERGLEWVAEIRSKPNNHATYYAESVKGRFTISRDDSKSSVYLQMTSLRPEDTGIYYCTHFDYWGQGTTLTVSSAKTTGPSVFPLAPSSKSTSGGTAALGCLVKDYFPEPVTVSWNSGALTSGVHTFPAVLQSSGLYSLSSVVTVPSSSLGTQTYICNVNHKPSNTKVDKKVEPKSCDKTHTCPPCPAPELLGGPSVFLFPPKPKDTLMISRTPEVTCVVVDVSHEDPEVKFNWYVDGVEVHNAKTKPREEQYNSTYRVVSVLTVLHQDWLNGKEYKCKVSNKALPAPIEKTISKAKGQPREPQVYTLPPSRDELTKNQVSLWCLVKGFYPSDIAVEWESNGQPENNYKTTPPVLDSDGSFFLYSKLTVDKSRWQQGNVFSCSVMHEALHNHYTQKSLSLSPEL
chain 2: DIQMTQSPSSLSASLGERVSLTCRASQEISGYLSWFQQKPDGTIKRLIYAASALDSGVPKRFSGSWSGSDYSLTISSLESEDFADYYCLQYVSYPLTFGAGTKLELKRTVAAPSVFIFPPSDEQLKSGTASVVCLLNNFYPREAKVQWKVDNALQSGNSQESVTEQDSKDSTYSLSSTLTLSKADYEKHKVYACEVTHQGLSSPVTKSFNRGEC
chain 3: not shown
chain 4: DIMMTQSPSSMYASLGERVTITCKASQDINSYLSWFQQKPGKSPKTLISRANRLVDGVPSRFSGSGSGQDYSLTISSLEYEDMGIYYCLQYDDFPFTFGGGTKVEIKRTVAAPSVFIFPPSDEQLKSGTASVVCLLNNFYPREAKVQWKVDNALQSGNSQESVTEQDSKDSTYSLSSTLTLSKADYEKHKVYACEVTHQGLSSPVTKSFNRGEC
B5: Antibody 5A6.2.1 (anti-human FcγRIIB monoclonal antibody) (antibody)
VH: EVKLEESGGGLVQPGGSMKLSCVASGFTFSDAWMDWVRQSPERGLEWVAEIRSKPNNHATYYAESVKGRFTISRDDSKSSVYLQMTSLRPEDTGIYYCTHFDYWGQGTTLTVSSAKTTGPSVFPLAPSSKSTSGGTAALGCLVKDYFPEPVTVSWNSGALTSGVHTFPAVLQSSGLYSLSSVVTVPSSSLGTQTYICNVNHKPSNTKVDKKVEPKSCDKTHT
VL: B4 chain 2
notes: 5A6(A) and 5A6(B) are two protein preps of 5A6; also called 5A6 MAb; 5A6 mIgG1
B6: 5A6/22E7 knob in holes, hingeless bispecific antibody (anti-FcγRIIB/anti-FcεRI) (bispecific antibody)
chain 1: B4 chain 1 with C223S, C226S
chain 2: B4 chain 2
chain 3: EVKLVESGGGLVKPGGSLKLSCAASGFTFSSYGMSWVRQTPEKRLEWVATISGGNNYTFYPDNLKGRFTISRDNAKNILYLQISSLRSVDTALYYCASLWYRASFAYWGQGTLVTVSSAKTTGPSVFPLAPSSKSTSGGTAALGCLVKDYFPEPVTVSWNSGALTSGVHTFPAVLQSSGLYSLSSVVTVPSSSLGTQTYICNVNHKPSNTKVDKKVEPKSCDKTHTSPPSPAPELLGGPSVFLFPPKPKDTLMISRTPEVTCVVVDVSHEDPEVKFNWYVDGVEVHNAKTKPREEQYNSTYRVVSVLTVLHQDWLNGKEYKCKVSNKALPAPIEKTISKAKGQPREPQVYTLPPSRDELTKNQVSLSCAVKGFYPSDIAVEWESNGQPENNYKTTPPVLDSDGSFFLVSKLTVDKSRWQQGNVFSCSVMHEALHNHYTQKSLSLSPEL
chain 4: B4 chain 4

Key:
[1] = molecular target: B6; assay: flow cytometry, RBL huFcεRI+huFcγRIIB1 and +huFcγRIIB2 cells (FIGS. 40, 41)
[2] = molecular target: T3, GST-huFcγRIIB (human FcγRIIB extracellular domain-Gly-His6-GST fusion protein) (human, UniProt P08515 1-218 = GST); assay: sandwich (bridging) ELISA, FIG. 29: plate FcγRIIB-His6-GST, antibody titrated, then huFcεRI-ECD-Fc and IgE-biotin/streptavidin-HRP; signal needs both arms
T3 construct: Expressed in 293 cells; also called FcγRIIB-His6-GST; huFcγRIIB-His6-GST

[3] = molecular target: T1, huFcεRI-ECD-Fc (IgE receptor fusion); assay: sandwich (bridging) ELISA, FIG. 30: plate huFcεRI-ECD-Fc, antibody titrated, then FcγRIIB-His6-GST and anti-GST-biotin/streptavidin-HRP; signal needs both arms, so the value does not measure 22E7 on FcεRI alone
[4] = molecular target: T1, huFcεRI-ECD-Fc (IgE receptor fusion); assay: sandwich (bridging) ELISA, FIG. 30: plate huFcεRI-ECD-Fc, antibody titrated, then FcγRIIB-His6-GST and anti-GST-biotin/streptavidin-HRP; signal needs both arms
Experimental: ELISA plates were coated overnight at 4° C. with 100 μl of a 1 μg/ml solution of huFcεRI-ECD-Fc in PBS, pH 7.4. The plate was washed with PBS and blocked with 1% Casein blocker in PBS. The wells were washed three times with PBS/0.05% TWEEN®. Serial dilutions of 5A6/22E7 bispecific antibodies, 5A6 antibodies, or 22E7 antibody were prepared in ELISA Diluent buffer and added to wells at 100 μl/well of each dilution. The plates were incubated for 1 hour at room temperature. After washing the plate three times with PBS/0.05% TWEEN®, FcγRIIB-His₆-GST was added to each well at 100 μl of 1 μg/ml in the presence of 10 μg/ml of CD4-IgG to block FcγRIIB-His₆-GST binding to Fc portion of the test antibody, huFcεRI-ECD-Fc and secondary antibody (anti-GST-biotin) and incubated for 1 hour at room temperature. After washing the plate three times with PBS/0.05% TWEEN®, 100 μl of 1 μg/ml anti-GST-biotin was added to each well and incubated for 1 hour at room temperature. The plate was washed with PBS/0.05% TWEEN® and incubated 30 minutes with 100 μl/well of 1:2000 Streptavidin-HRP in Elisa diluent buffer. After washing with PBS/0.05% TWEEN®, the plate was incubated 5 minutes with 100 μl TMB substrate. The reaction was quenched with 100 μl/well stop solution and the plate read at 630 nm. […]

[5] = molecular target: T3, GST-huFcγRIIB (human FcγRIIB …); assay: ELISA, plate-coated GST fusion (FIG. 6)
[6] = molecular target: T2, native human FcγRIIA (CD32A) on K562 …; assay: indirect immunofluorescence, flow cytometry on K562 cells (FIG. 16)
Text: Indirect immunofluorescence binding analysis of 5A6 MAb to native FcγRIIA expressed on K562 erythroleukemia cells (ATCC No. CCL-243) is presented in FIG. 16. Separated aliquots of K562 cells were stained with either a mIgG1 isotype control (mopc 21), 5A6 (anti-human FcγRIIB) monoclonal antibody or Medarex 4.3 MAb (anti-human FcγRIIA/B) monoclonal antibody.

Binder | ECD to bispecific ratio at which binding to cells is decreased (complete blocking only with both ECDs) [1] | IC50 [2] | IC50 [4] | also measured
B1 | 10 ratio ECD:bispecific | – | – | –
B2 | – | 100 µg/mL | – | IC50 [3]: 2800 µg/mL
B3 | 10 ratio ECD:bispecific | – | – | –
B4 | – | 0.0552 µg/mL and 0.076 µg/mL | 0.49 µg/mL and 0.291 µg/mL | –
B5 | – | – | – | EC50 [5]: 0.06 nM; binding result [6]: no binding
B6 | – | 0.023 µg/mL | 0.0765 µg/mL | –
